The values below come from patent US20260258115A1 (MAPP BIOPHARMACEUTICAL, published 2026).

One test has as its target RSV F on RSV-A2 virus (Respiratory Syncytial Virus (RSV-A2), UniProt P03420 26-574). Nature of the test: cell-based or functional assay.
For test [1], the target named is RSV prefusion F (preF), DS-Cav1 (Respiratory Syncytial Virus, UniProt P03420 26-513). As to the kind of experiment: BLI, IgG on anti-human IgG sensor, 100 nM antigen, 1:1 fit. A general note: In BLI a coated tip is dipped into the sample, and binding shifts an interference pattern.
Test [2] has as its target RSV postfusion F (postF), F ΔFP (Respiratory Syncytial Virus, UniProt P03420 26-513). The description is as above.

Bounds are passed on as bounds.

B1: ADI-41537 (antibody, V domains shown)
VH: EVQLLESGGGLVQPGGSLRLSCAASEFTFSRYPMSWVRQAPGKGLEWVSGISVSGDSTYYADSVKGRLTISRDNSKNTLYLQMNSLRAEDTAVYYCAIDHYDTSGYYGMDVWGQGTTVTVSS
VL: DIRLTQSPLSLPVTPGEPASISCRSSRSLLRSNGYNYLDWYLQKPGQSPQLLIYLGSNRASGVPDRFSGSGSGTDFTLKISRVEAEDVGVYYCMQALQSSYTFGQGTKLEIK
For the molecule B1, the “Neutralization IC50 (RSV subtype A)” value with RSV F on RSV-A2 virus was more than 25 µg/mL. Further, the Kd (in general, a measure of binding affinity in units of concentration) was 2.58 nM in test [1] and 0.488 nM in test [2].

B2: ADI-41549 (antibody, V domains shown)
VH: EVQLLESGGGVVQPGGSLRLSCAASGFTFSGYGMHWVRQAPGKGLEWVAFIQYNGSNKYYADSVKGRFTISRDNSKNTLYVQLNSLRAEDTAVYYCATDILVVPAATPLISYYFGMDVWGQGTTVTVSS
VL: QSALTQPASVSGSPGQSITISCTGTSSDVGGYNYVSWYQQYPGKAPKLMIYEVTNRPSGVSNRFSGSKSGNTASLTISGLQAEDEADYYCCSYTSTNTRVFGTGTKVTVL
notes: also called Ab 821; Antibody Number 821
In the case of B2, the “Neutralization IC50 (RSV subtype A)” value with RSV F on RSV-A2 virus was more than 25 µg/mL. Also, the figures for the Kd in test [1] and in test [2] were 0.408 nM and 1.56 nM, respectively.

B3: ADI-41529 (antibody, V domains shown)
VH: EVQLVQSGAEVRRPGSSVKVSCKASGGTLDTDSISWVRQVPGQGLVWVGGVIPILGSVVYARKFQGRVTITADGSTSTAYMELRSLRSEDTAMYYCASQFYDFRRGYFDAFDIWGQGTTVTVSS
VL: ETTLTQSPGILSLSPGERATLSCRATQTVISNYINWYQQKPGQAPRLLIYGASSRATGIPDRFSGSGSGTDFTLTISRLEPEDFAVYYCQRYDSSPPGFTFGPGTKVDIK
B3: the “Neutralization IC50 (RSV subtype A)” value with RSV F on RSV-A2 virus was more than 25 µg/mL. Further, the Kd amounted to 1.03 nM in test [1] and 0.351 nM in test [2].

B4: ADI-41534 (antibody, V domains shown)
VH: QVQLVQSGGGVVQPGRSLRLSCAASGFTFSNYAMHWVRQAPGKGLEWVTLISYDGSAQDYADSVKGRITISRDNSKNTLYLQMSSLRPEDTAVYYCARYYCTNDVCSSSALDIWGQGTTVTVSS
VL: SYELIQPPSVSVSPGQTASITCSGDKLGNKFTCWYQQKPGQSPVLVIYQDSKRPSGIPERFSGSNSGNTATLTISGTQAMDEADYYCQAWDSSTVVFGGRTKLTVL
notes: also called Ab 806; Antibody Number 806
For the molecule B4, the “Neutralization IC50 (RSV subtype A)” value with RSV F on RSV-A2 virus was more than 25 µg/mL. The Kd worked out at 3.31 nM in test [1] and 0.472 nM in test [2].

B5: ADI-41540 (antibody, V domains shown)
VH: QVQLQQWGAGLLKPSETLSLTCGVYGGSFTGYQWSWIRQSPGKGLEWIGDIDHGGNTNYRPSLKSRIITSVNMSKKEFSLKLASVTAADTAVYYCARGVGFLEFSGGPTGRRRNWFDSWGQGTLVTVSS
VL: DIQLTQSPGTLSLSPGEGATLSCRASQSVGGSYLAWYQQRPGQAPRLLIYGASNRAADSPDRFSGSGSATDFTLTISRLEPEDFAVYYCQQYGSSPWTFGQGTKVEIK
As to B5, the “Neutralization IC50 (RSV subtype A)” value in the test with RSV F on RSV-A2 virus is more than 25 µg/mL. The Kd in test [1] stood at 3.54 nM; in test [2], 0.686 nM.

B6: ADI-41547 (antibody, V domains shown)
VH: QVQLVQSGAEVKKPGSSVKVSCKASGGSFSSNTINWVRQAPGQGLEWMGGIIPVFETPNYAQKFQGRVSFTADESTRTAYMELSSLRSEDTAVYFCARQGMSYYDTNGNYYVGWFDTWGQGTLVTVSS
VL: EIVLTQSPGTLSLSPGERATLSCRASQSLNNNYLAWYQRKPGQAPRLLIYGAGAFSRATGIPDRFSGSGSGTDFTLTISRLEPEDFALYYCQQYGSSPLTFGQGTRLEIK
notes: also called Ab 819; Antibody Number 819
With B6, the “Neutralization IC50 (RSV subtype A)” value with RSV F on RSV-A2 virus turned out to be 0.05 µg/mL. Further, the Kd in test [1] was found to be 3.19 nM; in test [2], 1.08 nM.

B7: ADI-41548 (antibody, V domains shown)
VH: QVQLQQWGPGLVKPSETLSLTCTVSGASITSHYWSWLRQPAGKGLEWIGRFYPSGTTEKTPSLKSRVTLSVDTSKNHFSLKLTSVTAADTAVYYCARDSYDDIAGSYEYYFADWGQGTLVTVSS
VL: EIVLTQSPATLSVSPGERATLSCRASQSVSSNLAWYQQKPGQAPRLLIYDISTRATGVPARFSGSGSGTEFTLTITSLQSEDFTVYYCQQYNNWPPTFGQGTKLEIK
notes: also called Ab 820; Antibody Number 820
In the case of B7, the “Neutralization IC50 (RSV subtype A)” value with RSV F on RSV-A2 virus is more than 25 µg/mL. Moreover, the Kd came to 2.56 nM in test [1] and 1.45 nM in test [2].

B8: ADI-41538 (antibody, V domains shown)
VH: EVQLVESGGGLVKPGGSLRLSCAASGFTLSTYGVNWVRQAPGKGLEWVSSISSSGNNIHYADSVKGRFTVFRDNAKHSMYLQMNSLRAEDTAVYYCARSLDYSNYYYYYGLDVWGQGTTVTVSS
VL: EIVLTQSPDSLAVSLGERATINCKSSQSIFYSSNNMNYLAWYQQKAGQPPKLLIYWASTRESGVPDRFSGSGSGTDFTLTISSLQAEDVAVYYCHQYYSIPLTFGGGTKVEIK
notes: also called Ab 810; Antibody Number 810
As for B8, the “Neutralization IC50 (RSV subtype A)” value with RSV F on RSV-A2 virus is more than 25 µg/mL. Further, the values for the Kd in test [1] and in test [2] were 3.44 nM and 0.587 nM, respectively.

B9: ADI-41533 (antibody, V domains shown)
VH: QVQLVESGGGVVQPGRSLRLSCAASGFTFSSYAMHWVRQAPGKGLEWLAVISFDGSSEFYGDSVRGRFTISRDNSKNTLYLRVNSLRAEDTALYYCARRSLKYSMYNNDAFDVWGQGTTVTVSS
VL: QPVLTQPPSVSVSPGQTASITCSGDKLGNKFTFWYQQKSGQSPVLVIYQESQRPSGIPERFSGSNSGNTATLTIRGAQAMDEADYYCQAWDSSTAFFGGGTKLTVL
As to B9, the “Neutralization IC50 (RSV subtype A)” value in the test with RSV F on RSV-A2 virus was more than 25 µg/mL. Besides, the Kd turned out to be 1.47 nM in test [1] and 0.423 nM in test [2].

B10: ADI-41543 (antibody, V domains shown)
VH: QVQLVQSGAEVKKPGASVRVSCKASGYTLTGYYIHWLRQAPGQGLEWVGRINPNTGETSYSQKFQGRVIMTRDTSVSTAYVDLSRLRSRDTAVYFCARSDVMITVTAEGDFSYYYYRFDVWGQGTTVTVSS
VL: DIVMTQTPLSLPVTPGEPASISCRSSQSLLHSNGHNYLDWYLQKPGQSPQLLIYLGSIRASGVSDRFSGSGSGTDFTLKISRVEAEDVGIYYCMQALQTPHFGGGTKVEIK
As to B10, the “Neutralization IC50 (RSV subtype A)” value in the test with RSV F on RSV-A2 virus is more than 25 µg/mL. For the same molecule, the Kd was determined as 2.9 nM in test [1] and 0.796 nM in test [2].

B11: ADI-41530 (antibody, V domains shown)
VH: QVQLVESGAEVKKPGASVKVSCRASGYTFSAYDINWVRQAPGQGLEWVGWMNPNSGNTGYALRFQGRVTMTRDTSINTAYMELSSLRSDDTAVYYCAAQLWYPNWGQGTLVTVSS
VL: SYELTQPPSVSVGLGQTASITCGGNNIGSKSVHWYQQKPGQAPTLVIYRDTNRPSGIPERFSGSNSENTATLTISRAQAGDEADFYCQVSDNYSWVFGGGTKLTVL
notes: also called Ab 802; Antibody Number 802
Turning to B11, the “Neutralization IC50 (RSV subtype A)” value with RSV F on RSV-A2 virus was more than 25 µg/mL. Moreover, the figures for the Kd in test [1] and in test [2] were 1.91 nM and 0.355 nM, respectively.

B12: ADI-41536 (antibody, V domains shown)
VH: EVQLVESGAGLLKPSETLSLTCVVYGGSFSGYYWSWIRQPPGKGLEWVGDINHSTTTNYNPSLESRITISIDTSKNQFSLNLSSVTAADSAVYYCARGPKECTSSSCDRFGVDYFYYGMDVWGRGTTVTVSS
VL: QSVLTQPPSVSGAPGQRVTISCTGSSANIGAGYDVHWYQQFPGTAPKLLIFGNSNRPSGVPDRFSGSKSGTSASLAITGLQAEDEADYYCQSYDGTLGGWVFGGGTQLTVL
notes: also called Ab 808; Antibody Number 808
Turning to B12, the “Neutralization IC50 (RSV subtype A)” value with RSV F on RSV-A2 virus was more than 25 µg/mL. The values for the Kd in test [1] and in test [2] were 3.05 nM and 0.476 nM, respectively.

B13: ADI-41531 (antibody, V domains shown)
VH: EVQLLESGGDLVQPGGSLRLSCAASGFTFFSYALNWVRRTPGKGLEWVSGISGSGGSTYYADSVKGRFTISRDNSKSTLYLQMNSLKVDDTAVYFCAKDFQHDYGDPYRSYYFDHWGQGTLVTVSS
VL: DIQLTQSPSSLAASVGDRVTITCQASRDIRKSLNWYQVKPGKAPKLLISDASYLETGVPPRFSGSGFGTHFTFTISSLQPEDIATYYCQQYDNLPPPTFGGGTKVDIK
notes: also called Ab 803; Antibody Number 803
For B13, the “Neutralization IC50 (RSV subtype A)” value with RSV F on RSV-A2 virus is more than 25 µg/mL. In addition, the Kd amounted to 2.08 nM in test [1] and 0.377 nM in test [2].

B14: ADI-41545 (antibody, V domains shown)
VH: QVQLVESGPGLVKPSETLSLTCTVSGGSISRYYWSWIRQSPGKGLEWIGYIYHSVITNYNPSLKSRVTISIDMSKNQFSLKLSSVTAADTAVYYCASRPLINGYGPDNYFDYWGQGTLVTVSS
VL: SYVLTQPPSVSVAPGQTARITCGGNNIGSKSVHWYQRKPGQAPVLVVYDDSDRPSGIPERFSGSNSGNTATLTIIRVEAGDEADYYCQVWDNSSDHPVFGGGTKLTVL
notes: also called Ab 817; Antibody Number 817
Turning to B14, the “Neutralization IC50 (RSV subtype A)” value with RSV F on RSV-A2 virus was more than 25 µg/mL. Moreover, the figures for the Kd in test [1] and in test [2] were 1.36 nM and 0.825 nM, respectively.

B15: ADI-41539 (antibody, V domains shown)
VH: QVQLVESGAEVKKPGASVKVSCKASGYNFIDYGISWVRQAPGQGLEWVGWISAYNGNTNYAQKLQGRVTMTTDTSTNTAYMELRSLRSDDTALYYCARDSSSLHPTYYYYYPMDVWGQGTTVTVSS
VL: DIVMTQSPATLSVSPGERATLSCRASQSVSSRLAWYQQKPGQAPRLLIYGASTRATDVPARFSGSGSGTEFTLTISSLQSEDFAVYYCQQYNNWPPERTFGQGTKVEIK
Take B15: the “Neutralization IC50 (RSV subtype A)” value in the test with RSV F on RSV-A2 virus amounted to 0.18 µg/mL. For the same molecule, the Kd in test [1] stood at 3.38 nM; in test [2], 0.615 nM.

B16: ADI-41532 (antibody, V domains shown)
VH: QVQLVQSGAEVKKPGESLKISCKGSGYSFTSSWIGWVRQMPGKGLEWMGIIYPGDSDTRYSPSIQGRVTISADKSITTAYLQWSSLKASDTATYYCAKFGGYADAYFYHGMDVWGQGTTVTVSS
VL: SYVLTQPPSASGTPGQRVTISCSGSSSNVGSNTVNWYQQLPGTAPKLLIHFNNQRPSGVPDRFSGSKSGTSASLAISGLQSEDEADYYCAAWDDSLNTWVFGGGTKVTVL
Take B16: the “Neutralization IC50 (RSV subtype A)” value with RSV F on RSV-A2 virus is more than 25 µg/mL. Further, the Kd stood at 1.92 nM in test [1] and 0.392 nM in test [2].

B17: ADI-41535 (antibody, V domains shown)
VH: QVTLKESGPALVKPTQTLTLTCTFSGFSLSTSRMCVSWIRQSPGKALEWLARIDWDDDKFFSTSLKTRLTISKDTSRNQVVLTMTNMDPVDTATYYCARTTVYASGGYYLYYFDYWGQGTLVTVSS
VL: DIQLTQSPSSLPASVGDRVTITCRASQRIASYLNWYQQKPGKAPKVLIYAASNLQSGVPSRFSGSGSGTDFTLTINSLQPEDFATYYCQQSYTTPWTFGQGTKVEIK
As for B17, the “Neutralization IC50 (RSV subtype A)” value with RSV F on RSV-A2 virus is more than 25 µg/mL. The Kd in test [1] was found to be 1.93 nM; in test [2], 0.476 nM.

B18: ADI-41541 (antibody, V domains shown)
VH: QITLKESGPTLVKPTQTLTLTCTFSGFSLSSSGVGVGWIRQPPGKALEWLALIYWDDDKRYSPSLKSRLTITKDTSKNQVVLTMTNMDPVDTATYYCAHRGPYYYDMSGYYYEAFDIWGQGTTVTVSS
VL: SYELMQPPSVSVAPGQTARITCGGNNIGSKGVHWYQQKPGQAPVLVVYDDNDRPSGIPERFSGSNSGNTATLTISRVEAGDEADYYCQVWDSSSDHHYVFGTGTKVTVL
notes: also called Ab 813; Antibody Number 813
Take B18: in the test with RSV F on RSV-A2 virus, the “Neutralization IC50 (RSV subtype A)” value was more than 25 µg/mL. For the same molecule, the Kd was 2.47 nM in test [1] and 0.776 nM in test [2].
